T1: Heh2-VN (budding yeast, UniProt Q03281 1-663)
T1 sequence (looked up): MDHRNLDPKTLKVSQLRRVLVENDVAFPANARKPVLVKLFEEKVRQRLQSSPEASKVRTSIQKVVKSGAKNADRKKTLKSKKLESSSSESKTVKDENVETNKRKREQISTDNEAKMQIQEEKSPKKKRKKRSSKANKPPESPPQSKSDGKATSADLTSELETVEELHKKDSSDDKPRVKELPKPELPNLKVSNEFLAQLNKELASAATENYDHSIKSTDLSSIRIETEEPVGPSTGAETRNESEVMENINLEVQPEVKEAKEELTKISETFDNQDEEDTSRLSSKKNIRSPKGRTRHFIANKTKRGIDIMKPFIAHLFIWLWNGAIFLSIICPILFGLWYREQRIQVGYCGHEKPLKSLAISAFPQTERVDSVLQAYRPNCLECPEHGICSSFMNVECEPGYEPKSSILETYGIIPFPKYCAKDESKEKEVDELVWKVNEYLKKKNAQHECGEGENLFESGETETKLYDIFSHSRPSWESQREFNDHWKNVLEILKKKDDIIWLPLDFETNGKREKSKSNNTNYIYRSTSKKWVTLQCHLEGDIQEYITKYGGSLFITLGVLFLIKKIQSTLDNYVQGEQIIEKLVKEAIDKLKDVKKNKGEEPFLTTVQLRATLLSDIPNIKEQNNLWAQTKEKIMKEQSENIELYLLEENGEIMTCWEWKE

T2: Snf7-VN (budding yeast, UniProt P39929 1-240)
T2 sequence (looked up): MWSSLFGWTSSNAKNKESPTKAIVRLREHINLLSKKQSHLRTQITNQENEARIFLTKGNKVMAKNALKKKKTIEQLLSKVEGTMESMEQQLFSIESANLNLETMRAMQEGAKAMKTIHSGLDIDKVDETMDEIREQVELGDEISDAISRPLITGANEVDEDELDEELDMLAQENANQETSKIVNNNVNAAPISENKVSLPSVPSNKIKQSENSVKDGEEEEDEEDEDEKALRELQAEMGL


Key:
Experiment in all cases: split reporter
Heh1-VN (budding yeast) = Heh1-VN (budding yeast) (UniProt Q03707)
Heh2-VN = molecular target: T1, Heh2-VN
Snf7-VN = molecular target: T2, Snf7-VN

Sequence of Heh1-VN (budding yeast) (Q03707 whole entry): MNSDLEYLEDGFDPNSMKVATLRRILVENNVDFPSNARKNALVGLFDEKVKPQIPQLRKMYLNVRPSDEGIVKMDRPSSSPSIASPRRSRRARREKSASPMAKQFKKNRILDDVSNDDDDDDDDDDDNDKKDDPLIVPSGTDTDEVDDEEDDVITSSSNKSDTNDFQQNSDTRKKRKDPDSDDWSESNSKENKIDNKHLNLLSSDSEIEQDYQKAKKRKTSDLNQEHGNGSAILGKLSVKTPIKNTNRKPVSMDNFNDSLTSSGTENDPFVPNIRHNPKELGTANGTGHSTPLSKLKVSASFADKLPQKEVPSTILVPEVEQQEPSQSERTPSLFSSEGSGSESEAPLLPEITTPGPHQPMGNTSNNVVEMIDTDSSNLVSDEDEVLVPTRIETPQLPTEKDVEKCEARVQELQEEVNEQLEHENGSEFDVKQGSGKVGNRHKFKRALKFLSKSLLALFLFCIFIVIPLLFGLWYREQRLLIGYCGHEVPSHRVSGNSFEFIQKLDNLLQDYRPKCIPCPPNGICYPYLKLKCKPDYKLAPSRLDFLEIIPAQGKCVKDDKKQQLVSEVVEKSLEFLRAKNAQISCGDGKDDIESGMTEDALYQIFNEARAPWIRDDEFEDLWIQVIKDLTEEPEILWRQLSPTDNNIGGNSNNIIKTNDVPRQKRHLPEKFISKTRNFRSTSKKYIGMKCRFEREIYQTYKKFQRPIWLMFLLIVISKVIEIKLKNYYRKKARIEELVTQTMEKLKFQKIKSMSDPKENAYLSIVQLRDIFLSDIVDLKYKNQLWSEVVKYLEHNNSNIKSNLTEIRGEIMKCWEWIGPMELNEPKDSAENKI

percent of cells with Venus fluorescence (Snf7-VN)	Molecule	other results
–	Snf7-VC (from UniProt P39929 1-240) (natural protein)	percent of cells with Venus fluorescence (Heh1-VN (budding yeast)): 45 % of cells
–	Snf7-VC (natural protein, budding yeast, UniProt P39929 1-240, looked up) MWSSLFGWTSSNAKNKESPTKAIVRLREHINLLSKKQSHLRTQITNQENEARIFLTKGNKVMAKNALKKKKTIEQLLSKVEGTMESMEQQLFSIESANLNLETMRAMQEGAKAMKTIHSGLDIDKVDETMDEIREQVELGDEISDAISRPLITGANEVDEDELDEELDMLAQENANQETSKIVNNNVNAAPISENKVSLPSVPSNKIKQSENSVKDGEEEEDEEDEDEKALRELQAEMGL	percent of cells with Venus fluorescence (Heh2-VN): ~18 % of cells
~90 % of cells	Vps20-VC (natural protein, budding yeast, UniProt Q04272 1-221, looked up) MGQKSSKVHITKTDRAILEVKRSKDEIHKFTRRTDNLILVEKSQLKDLIRKNPENYKSNMKVRFLLKRIHYQEHLLQQASDQLINLENMVSTLEFKMVEKQFINGLKNGNEILKKLNKEFSNVDELMDDVQDQIAYQNEINETLSRSLVGTSNYEDDLDKELDALESELNPEKMNNAKVANMPSTEGLPSLPQGEQTEQKEREEFATEERSDTKEPLALLS	–
~90 % of cells	Bro1-VC (natural protein, budding yeast, UniProt P48582 1-844, looked up) MKPYLFDLKLKDTEKLDWKKGLSSYLKKSYGSSQWRTFYDEKATSELDHLRNNANGELAPSSLSEQNLKYYSFLEHLYFRLGSKGSRLKMDFTWYDAEYSSAQKGLKYTQHTLAFEKSCTLFNIAVIFTQIARENINEDYKNSIANLTKAFSCFEYLSENFLNSPSVDLQSENTRFLANICHAEAQELFVLKLLNDQISSKQYTLISKLSRATCNLFQKCHDFMKEIDDDVAIYGEPKWKTTVTCKLHFYKSLSAYYHGLHLEEENRVGEAIAFLDFSMQQLISSLPFKTWLVEFIDFDGFKETLEKKQKELIKDNDFIYHESVPAVVQVDSIKALDAIKSPTWEKILEPYMQDVANKCDSLYRGIIPLDVYEKESIYSEEKATLLRKQVEETETANLEYSSFIEFTNLPRLLSDLEKQFSDGNIFSNTDTQGQLMRDQIQTWCKFIQTNEFRDIEEQMNKIVFKRKQILEILSALPNDQKENVTKLKSSLVAASNSDEKLFACVKPHIVEINLLNDNGKIWKKFDEFNRNTPPQPSLLDIDDTKNDKILELLKQVKGHAEDLRTLKEERSRNLSELRDEINNDDITKLLIINKGKSDVELKDLFEVELEKFEPLSTRIEATIYKQSSMIDDIKAKLDEIFHLSNFKDKSSGEEKFLEDRKNFFDKLQEAVKSFSIFASDLPKGIEFYDSLFNMSRDLAERVRVAKQTEDSTANSPAPPLPPLDSKASVVGGPPLLPQKSAAFQSLSRQGLNLGDQFQNLKISAGSDLPQGPGIPPRTYEASPYAATPTMAAPPVPPKQSQEDMYDLRRRKAVENEERELQENPTSFYNRPSVFDENMYSKYSS	–
